Measurements from patent publication US7052704B2, “Methods and compositions for lipidization of hydrophilic molecules” (University of Southern California, priority 1995, dated 2006).

Legend:
[1] = Skin absorption of 125I-labeled BBI or BBIssPal; conditions: 5 μl of 0.5 mg/ml on 0.38 cm^2, 30 minutes, 23° C.
Caco-2 monolayers = test: Transport of single- and multiple-conjugates across Caco-2 monolayers in transwells; format: cell-based, Human
Protocol: Confluent cell monolayers, 2 to 3 weeks old, and having a TEER value of approximately 500 Ωcm^2, were first incubated with Dulbecco's MEM containing 1% of FBS for 30 min at 37° C. Subsequently, the incubation medium was removed, and the ^125I-BBI (10 μg/ml) conjugates in 1.5 ml of the medium was added to the apical chamber of the transwells. To the basal chamber, 2.5 ml of the medium was added and the transwells were incubated at 37° C. At predetermined times, the entire basal chamber medium (2.5 ml) from each transwell was removed and counted for radioactivity using a gamma counter. In each experiment, typically seven samples were taken at 1, 2, 3, 4, 5, 6 and 24 hr post-incubation. After the 24 hr samples were taken, the cell monolayers were rinsed three times with ice-cold PBS, cut out of the inserts, and counted for accumulated radioactivity using a gamma counter.
The integrity of the ^125I-BBI conjugates transported across the monolayers was studied using Sephadex G50 gel-filtration chromatography. Briefly, after the basal medium was sampled at 24 hr, 1.0 ml of the medium was centrifuged at 2000 rpm and then eluted from a G50 column (10 ml) using PBS; 1 ml fractions were collected and the fraction-associated radioactivity was determined using a gamma counter. Intact conjugates eluted at column void volume and fragments smaller than 1 kDa were eluted at or above the column volume.
In the transwell experiments, the conjugates were incubated with the apical side of the cells for 1 hr at 37° C. The transwells were then rinsed three times with ice-cold PBS and then reincubated with serum free medium. The release of the conjugates into the apical and the basal medium was chased for 24 hr by counting the entire basal or the apical medium at different times. The total counts obtained at the end of the chase period (transwells+media counts were added, and the release of the conjugates (% of total) at different times was calculated. To ensure that the counts obtained in the transwells at 24 hr were due to the presence of the conjugates in the cells and not non-specific binding to the plastic, the transwells were exposed to trypsin for 10 min, rinsed three times with ice-cold pbs, and subsequently counted for accumulated radioactivity.
BBI was modified with 2 or 4 palmitic acids, and the transport was determined in transwells. The cumulative transport of BBI, BBI modified with 4 palmitic acids, and BBI modified with 2 palmitic acids in Caco-2 monolayers were determined as BBI (ng/monolayer) ± SEM, n=3. The order of the transport extent was BBIssPal(4)>BBI>BBIssPal(2). The results of the internalization of the conjugates into the same cells were determined as the ng of BBI internalized per monolayer. […] The basal media obtained at 24 hr from the transwells was analyzed using a G50 column. […] However, a small, but significant, amount of the basal media of BBIssPal(2) consisted of intact conjugate. This quantity consisted of between about 10 and about 20% of the total radioactivity present in the basal medium.

C3H 10T1/2 cells = test: Plating efficiency in conjunction with transformation assay; format: cell-based; conditions: 200 cells/dish, 10 days; conjugates 1.0 μg/ml after MCA 1 μg/ml 24 hr
Protocol: The plating efficiency (PE) of the cells was also studied in conjunction with each of the transformation assays. To determine the PE of the cells in the different treatment groups, cells (200 cells/dish) were seeded into three 60-mm petri dishes per experiment group and treated in the identical manner as the transformation assay cells. The cells in these assays were terminated at 10 days, fixed with 100% methanol, and stained with giemsa; the colonies of 50 cells or more visible under a microscope were then counted. The plating efficiency is defined as the (number of colonies/number of cells seeded)*100.

B1: BBI: hydrophilic protein which has low uptake into cells and is not orally bioavailable; used for chemoprevention (protein, UniProt P01055 40-110, looked up)
Bowman-Birk type proteinase …: DDESSKPCCDQCACTKSNPPQCRCSDMRLNSCHSACKSCICALSYPAQCFCVDITDFCYEPCKPSEDDKEN
absorption into the mouse skins [1]: 0.14 μg/cm^2
order of the transport extent (cumulative transport) (Caco-2 monolayers; Caco-2 transwells, n=3): BBIssPal(4)>BBI>BBIssPal(2)
transcytosis across the monolayers (G50 analysis of basal media) (Caco-2 monolayers; basal media at 24 hr): neither BBI nor BBIssPal(4) was transcytosed
Plating Efficiency (%) (C3H 10T1/2 cells): 24 ± 2.0%
